Reference: the supplement of paper PMC10567573

B1: CPXM2 (parent)
chain: EILGCPLPDPNNYYHRRNEMTTTD
B2: SPACA3 (parent)
chain: FTSGFNAAALDYEADGSTNNGIFQ

Variants of: B1
Assay: protein stability index of a GFP-peptide fusion (GPS, HEK-293T) (PSI 1-6); higher = more stable
Details: c terminus: a fixed tail appended
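Note: lentivirally expressed fusions sorted by FACS into six bins by GFP to DsRed ratio, PSI derived from sequencing read proportions per bin multiplied by bin number.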

Variant | protein stability index
EILGCPLPDPNPYYHRRNEMTTTD | 3.45
EILGCPLPDPGNYYHRRNEMTTTD | 3.15
EILGCPLPDPDNYYHRRNEMTTTD | 3.57
EILGCPLPDPNNYYHRRNEMTTRD | 3.37
PILGCPLPDPNNYYHRRNEMTTTD | 4.63
EILGCPLQDPNNYYHRRNEMTTTD | 3.56
EILGCPLPDPNNYYHRRNEMTRTD | 3
EILGCPLPDPNNKYHRRNEMTTTD | 4.14
EILGCPLPDPNNFYHRRNEMTTTD | 3.35
EILGCPLPDPNNYYHRRNETTTTD | 4.6
EILGCPLPDPNNYYPRRNEMTTTD | 3.64
EILGCPHPDPNNYYHRRNEMTTTD | 3.88
EILGCPVPDPNNYYHRRNEMTTTD | 3.31
EILGCPLPPPNNYYHRRNEMTTTD | 3.26

Variants of: B2
Assay: as above
Details: c terminus: a fixed tail appended

Variant | protein stability index
FYSGFNAAALDYEADGSTNNGIFQ | 2.75
FPSGFNAAALDYEADGSTNNGIFQ | 2.07
FESGFNAAALDYEADGSTNNGIFQ | 4.66
FGSGFNAAALDYEADGSTNNGIFQ | 3.11
FRSGFNAAALDYEADGSTNNGIFQ | 2.71
FASGFNAAALDYEADGSTNNGIFQ | 2.44
FVSGFNAAALDYEADGSTNNGIFQ | 2.31
FQSGFNAAALDYEADGSTNNGIFQ | 2.26
FLSGFNAAALDYEADGSTNNGIFQ | 2.78
FKSGFNAAALDYEADGSTNNGIFQ | 3.62
FHSGFNAAALDYEADGSTNNGIFQ | 2.02
FDSGFNAAALDYEADGSTNNGIFQ | 4.32
FFSGFNAAALDYEADGSTNNGIFQ | 3.13
FISGFNAAALDYEADGSTNNGIFQ | 2.02
FMSGFNAAALDYEADGSTNNGIFQ | 3.05
FNSGFNAAALDYEADGSTNNGIFQ | 3.81
FSSGFNAAALDYEADGSTNNGIFQ | 2.88
FCSGFNAAALDYEADGSTNNGIFQ | 2.08
FWSGFNAAALDYEADGSTNNGIFQ | 2.91
ITSGFNAAALDYEADGSTNNGIFQ | 3.95
MTSGFNAAALDYEADGSTNNGIFQ | 3.99
HTSGFNAAALDYEADGSTNNGIFQ | 4.48
ATSGFNAAALDYEADGSTNNGIFQ | 4.21
VTSGFNAAALDYEADGSTNNGIFQ | 4.46
WTSGFNAAALDYEADGSTNNGIFQ | 3.6
LTSGFNAAALDYEADGSTNNGIFQ | 4.01
NTSGFNAAALDYEADGSTNNGIFQ | 4.94

Variant | protein stability index
TTSGFNAAALDYEADGSTNNGIFQ | 4.63
ETSGFNAAALDYEADGSTNNGIFQ | 5.11
GTSGFNAAALDYEADGSTNNGIFQ | 4.61
STSGFNAAALDYEADGSTNNGIFQ | 4.64
QTSGFNAAALDYEADGSTNNGIFQ | 4.24
DTSGFNAAALDYEADGSTNNGIFQ | 5.15
KTSGFNAAALDYEADGSTNNGIFQ | 4.54
YTSGFNAAALDYEADGSTNNGIFQ | 2.24
PTSGFNAAALDYEADGSTNNGIFQ | 4.29
CTSGFNAAALDYEADGSTNNGIFQ | 3.44
RTSGFNAAALDYEADGSTNNGIFQ | 4.61
FTSGENAAALDYEADGSTNNGIFQ | 4.38
FTSGCNAAALDYEADGSTNNGIFQ | 3.03
FTSGDNAAALDYEADGSTNNGIFQ | 4.79
FTSGANAAALDYEADGSTNNGIFQ | 4.07
FTGGFNAAALDYEADGSTNNGIFQ | 4.05
FTEGFNAAALDYEADGSTNNGIFQ | 2
FTQGFNAAALDYEADGSTNNGIFQ | 2.19
FTVGFNAAALDYEADGSTNNGIFQ | 2.07
FTYGFNAAALDYEADGSTNNGIFQ | 2.03
FTFGFNAAALDYEADGSTNNGIFQ | 2.12
FTIGFNAAALDYEADGSTNNGIFQ | 1.76
FTPGFNAAALDYEADGSTNNGIFQ | 2.29
FTCGFNAAALDYEADGSTNNGIFQ | 1.65
FTRGFNAAALDYEADGSTNNGIFQ | 2.46
FTMGFNAAALDYEADGSTNNGIFQ | 2.52
FTDGFNAAALDYEADGSTNNGIFQ | 2.55

Variant | protein stability index
FTWGFNAAALDYEADGSTNNGIFQ | 2.26
FTHGFNAAALDYEADGSTNNGIFQ | 2.14
FTNGFNAAALDYEADGSTNNGIFQ | 2.56
FTTGFNAAALDYEADGSTNNGIFQ | 1.84
FTLGFNAAALDYEADGSTNNGIFQ | 2.2
FTKGFNAAALDYEADGSTNNGIFQ | 2.97
FTAGFNAAALDYEADGSTNNGIFQ | 2.37
FTSTFNAAALDYEADGSTNNGIFQ | 2.42
FTSEFNAAALDYEADGSTNNGIFQ | 2.22
FTSPFNAAALDYEADGSTNNGIFQ | 2.78
FTSRFNAAALDYEADGSTNNGIFQ | 1.87
FTSNFNAAALDYEADGSTNNGIFQ | 2.3
FTSWFNAAALDYEADGSTNNGIFQ | 2.98
FTSMFNAAALDYEADGSTNNGIFQ | 1.74
FTSCFNAAALDYEADGSTNNGIFQ | 1.94
FTSIFNAAALDYEADGSTNNGIFQ | 2.15
FTSAFNAAALDYEADGSTNNGIFQ | 1.82
FTSLFNAAALDYEADGSTNNGIFQ | 1.7
FTSHFNAAALDYEADGSTNNGIFQ | 2.59
FTSKFNAAALDYEADGSTNNGIFQ | 1.98
FTSVFNAAALDYEADGSTNNGIFQ | 2.21
FTSFFNAAALDYEADGSTNNGIFQ | 2.13
FTSYFNAAALDYEADGSTNNGIFQ | 1.68
FTSDFNAAALDYEADGSTNNGIFQ | 2.79
FTSSFNAAALDYEADGSTNNGIFQ | 2.38
FTSQFNAAALDYEADGSTNNGIFQ | 2.43
